# B1: Aspergillus fumigatus lectin (AFL), recombinant (natural protein)
# chain: MSTPGAQQVLFRTGIAAVNSTNHLRVYFQDVYGSIRESLYEGSWANGTEKNVIGNAKLGSPVAATSKELKHIRVYTLTEGNTLQEFAYDSGTGWYNGGLGGAKFQVAPYSCIAAVFLAGTDALQLRIYAQKPDNTIQEYMWNGDGWKEGTNLGGALPGTGIGATSFRYTDYNGPSIRIWFQTDDLKLVQRAYDPHKGWYPDLVTIFDRAPPRTAIAATSFGAGNSSIYMRIYFVNSDNTIWQVCWDHGKGYHDKGTITPVIQGSEVAIISWGSFANNGPDLRLYFQNGTYISAVSEWVWNRAHGSQLGRSALPPA
# notes: Fucose-specific lectin AFL of Aspergillus fumigatus, gene AFUA_5G14740 (Af293 genome); cloned from a commercial cDNA library of A. fumigatus ATCC 13073 with primers from the start ATG to an in-frame stop codon; 314 aa long without the initial Met; Cloned NdeI/HindIII into pET29a with its own stop codon; no tag is mentioned; also called rAFL; AfuFleA
# Biological target: the molecule itself
# Test: AUC; sedimentation velocity; AFL 0.04-0.30 mg/ml in 20 mM Tris/HCl, 300 mM NaCl, pH 7.4; 20 °C, 42,000 rpm; continuous c(s) analysis in Sedfit
protein,measurement,value
B1,stoichiometry N,2
